{"source": "patent US4415667A", "about": "“Carboxypeptidase a gamma and process for preparing same” (Eisai Co., Ltd., priority 1981, dated 1983)", "proteins": {"B1": {"name": "porcine pancreas carboxypeptidase Aγ (new species, obtained in Example 1; NH2-terminal sequence beginning with Asn) (Sus scrofa) (protein)", "chain": "NYATYHTLEEIYDFMDILVAEHPQLVSKLQIGSSYEGRPIYVLKFSTGGNNRPAIWIDTGIHSREWVTQASGVWFAKKITEDYGQDPAFTAILDNLDIFLEIVTNPDGFAFTHSENRMWRKTRSRTSGSFCVGVDPNRNWDAGFGGAGASSNPCSETYHGKFPNSEVEVKSIVDFVNDHGNIKAFISIHSYSQLLLYPYGYKTEAPADKDELDQISKSAVAALTSLYGTKFQYGSIITTIYQASGGTIDWTYNQGIKYSFSFELRDTGRYGFLLPASQIIPTAQETWLALLTIMEHTLNHPY", "notes": "from tissue; host or cells: porcine pancreas (from the unit heads)"}}, "substrate": "O=C(CNC(=O)OCc1ccccc1)N[C@@H](Cc1ccccc1)C(=O)O", "assay": "Michaelis constant and maximum reaction velocity, hydrolysis of Nα-carbobenzoxyglycyl-L-phenylalanine (ninhydrin method)", "type": "biochemical, porcine", "settings": "other: substrate concentration varied from 0.02 to 0.1 M; 25.0 °C", "description": "The enzyme activity of the enzyme of the invention for Nα-carbobenzoxyglycyl-L-phenylalanine substrate was investigated by the ninhydrin method. […] After the combined solutions stood at 25° C. for 5 minutes, 0.2 ml of an enzyme solution was added, and the solution was incubated at 25° C. for 15 minutes. The reaction was stopped by adding 1 ml of a 3 M acetate buffer solution (pH 5.0) in an ice bath. The ninhydrin reagent was added to effect color development according to the Yemn & Cocking method. The enzyme activity for a casein substrate was investigated by the Kunitz method. Enzyme activities of the enzyme of the invention for benzoylglycyl-L-arginine and elastin were also investigated by the respective methods above. Enzyme activity was observed only for Nα-carbobenzoxyglycyl-L-phenylalanine and casein.\n(9) Michaelis constant and maximum reaction velocity"}
{"protein": "B1", "values": [{"measurement": "Km", "value": 20, "unit": "mM"}, {"measurement": "Vmax", "value": 235.5, "unit": "µmol/min/mg"}]}
